According to publication PMC3409459, “Absorption, distribution, metabolism and excretion of peginesatide, a novel erythropoiesis-stimulating agent, in rats” (Xenobiotica; the Fate of Foreign Compounds in Biological …, 2011):

Test: Tissue distribution of radioactivity by LSC following combustion, albino rats
Assay type: in vivo, male Sprague-Dawley (albino) rats
Details: mean ± SD, n=3
Protocol: Total captured radioactivity was subsequently measured via LSC.
Male Sprague-Dawley (albino) rats (n = 21; three per time point) were administered a single IV dose of 5 mg·kg^−1 [^14C]-peginesatide (27.5 μCi/kg) and tissue concentrations of radioactivity determined at 0.25, 6, and 24 h, and 7,14,30 and 60 days following dosing. Similarly, male Long Evans (pigmented) rats (n = 21; three per time point) were administered a single IV dose of 5 mg-kg^−1 [^14C]-peginesatide and plasma, skin, and eye concentrations of radioactivity were measured at the various time points through 60 days after dosing. At each time point, blood was collected, the animals sacrificed, and tissues excised. Tissues collected from the Sprague-Dawley rats included blood, plasma, adrenals, bone marrow, brain, eyes, fat, femur, Harderian glands, heart, hypophysis, intestine, kidneys, lungs, liver, pancreas, skeletal muscle, skin, spinal cord, spleen, stomach, submaxillary glands, testes, thymus, thyroid gland, and urinary bladder. Plasma, eyes, non-pigmented skin, and pigmented skin were collected from Long Evans rats. All tissue samples were measured for radioactivity by LSC following combustion. The liver and intestine were first homogenized in distilled water (20% w/v) prior to analysis. The concentration of radioactivity in the blood, plasma, and tissues was calculated and expressed as ug equiv·g^-1 or mLbased on the LSC counts and the specific activity of the dosing solution.

[1] = 7 Days after single IV 5 mg·kg^−1, LSC
[2] = 14 Days after single IV 5 mg·kg^−1, LSC
[3] = 30 Days after single IV 5 mg·kg^−1, LSC
[4] = 60 Days after single IV 5 mg·kg^−1, LSC

Peginesatide
Concentration of the radioactivity, Adrenals [1]: 10.2 ± 1.31 μg equiv·g^−1 or mL | Concentration of the radioactivity, Blood [1]: 3.87 ± 0.291 μg equiv·g^−1 or mL | Concentration of the radioactivity, Bone (femur) [1]: 0.788 ± 0.374 μg equiv·g^−1 or mL | Concentration of the radioactivity, Bone marrow [1]: 8.87 ± 0.641 μg equiv·g^−1 or mL | Concentration of the radioactivity, Brain [1]: 0.200 ± 0.021 μg equiv·g^−1 or mL | Concentration of the radioactivity, Eyes [1]: 0.885 ± 0.111 μg equiv·g^−1 or mL | Concentration of the radioactivity, Fat [1]: 2.11 ± 0.693 μg equiv·g^−1 or mL | Concentration of the radioactivity, Harderian glands [1]: 4.41 ± 0.100 μg equiv·g^−1 or mL | Concentration of the radioactivity, Heart [1]: 4.01 ± 0.344 μg equiv·g^−1 or mL | Concentration of the radioactivity, Intestine [1]: 3.05 ± 0.259 μg equiv·g^−1 or mL | Concentration of the radioactivity, Kidneys [1]: 5.68 ± 0.386 μg equiv·g^−1 or mL | Concentration of the radioactivity, Liver [1]: 12.5 ± 0.727 μg equiv·g^−1 or mL | Concentration of the radioactivity, Lungs [1]: 4.26 ± 0.285 μg equiv·g^−1 or mL | Concentration of the radioactivity, Pancreas [1]: 9.74 ± 0.231 μg equiv·g^−1 or mL | Concentration of the radioactivity, Pituitary [1]: 8.31 ± 0.594 μg equiv·g^−1 or mL | Concentration of the radioactivity, Plasma [1]: 7.80 ± 0.541 μg equiv·g^−1 or mL | Concentration of the radioactivity, Skeletal muscle [1]: 0.563 ± 0.119 μg equiv·g^−1 or mL | Concentration of the radioactivity, Skin [1]: 3.06 ± 0.055 μg equiv·g^−1 or mL | Concentration of the radioactivity, Spinal cord [1]: 0.129 ± 0.067 μg equiv·g^−1 or mL | Concentration of the radioactivity, Spleen [1]: 11.5 ± 0.204 μg equiv·g^−1 or mL | Concentration of the radioactivity, Stomach [1]: 2.36 ± 0.262 μg equiv·g^−1 or mL | Concentration of the radioactivity, Submandibular lymph nodes [1]: 10.6 ± 0.553 μg equiv·g^−1 or mL | Concentration of the radioactivity, Testes [1]: 4.98 ± 0.222 μg equiv·g^−1 or mL | Concentration of the radioactivity, Thymus [1]: 3.39 ± 0.560 μg equiv·g^−1 or mL | Concentration of the radioactivity, Thyroid gland [1]: 17.0 ± 5.26 μg equiv·g^−1 or mL | Concentration of the radioactivity, Urinary bladder [1]: 4.52 ± 1.01 μg equiv·g^−1 or mL | Concentration of the radioactivity, Adrenals [2]: 9.15 ± 2.39 μg equiv·g^−1 or mL | Concentration of the radioactivity, Blood [2]: 1.03 ± 0.229 μg equiv·g^−1 or mL | Concentration of the radioactivity, Bone (femur) [2]: 0.388 ± 0.054 μg equiv·g^−1 or mL | Concentration of the radioactivity, Bone marrow [2]: 6.33 ± 0.683 μg equiv·g^−1 or mL | Concentration of the radioactivity, Brain [2]: 0.102 ± 0.014 μg equiv·g^−1 or mL | Concentration of the radioactivity, Eyes [2]: 0.765 ± 0.022 μg equiv·g^−1 or mL | Concentration of the radioactivity, Fat [2]: 1.14 ± 0.475 μg equiv·g^−1 or mL | Concentration of the radioactivity, Harderian glands [2]: 5.21 ± 0.433 μg equiv·g^−1 or mL | Concentration of the radioactivity, Heart [2]: 2.73 ± 0.254 μg equiv·g^−1 or mL | Concentration of the radioactivity, Intestine [2]: 1.78 ± 0.297 μg equiv·g^−1 or mL | Concentration of the radioactivity, Kidneys [2]: 4.49 ± 1.02 μg equiv·g^−1 or mL | Concentration of the radioactivity, Liver [2]: 8.53 ± 0.754 μg equiv·g^−1 or mL | Concentration of the radioactivity, Lungs [2]: 3.38 ± 0.703 μg equiv·g^−1 or mL | Concentration of the radioactivity, Pancreas [2]: 9.10 ± 0.629 μg equiv·g^−1 or mL | Concentration of the radioactivity, Pituitary [2]: 6.25 ± 1.17 μg equiv·g^−1 or mL | Concentration of the radioactivity, Plasma [2]: 2.00 ± 0.605 μg equiv·g^−1 or mL | Concentration of the radioactivity, Skeletal muscle [2]: 0.379 ± 0.108 μg equiv·g^−1 or mL | Concentration of the radioactivity, Skin [2]: 1.70 ± 0.109 μg equiv·g^−1 or mL | Concentration of the radioactivity, Spinal cord [2]: 0.069 ± 0.030 μg equiv·g^−1 or mL | Concentration of the radioactivity, Spleen [2]: 23.6 ± 2.82 μg equiv·g^−1 or mL | Concentration of the radioactivity, Stomach [2]: 2.00 ± 0.118 μg equiv·g^−1 or mL | Concentration of the radioactivity, Submandibular lymph nodes [2]: 10.9 ± 1.32 μg equiv·g^−1 or mL | Concentration of the radioactivity, Testes [2]: 5.19 ± 0.448 μg equiv·g^−1 or mL | Concentration of the radioactivity, Thymus [2]: 1.81 ± 0.249 μg equiv·g^−1 or mL | Concentration of the radioactivity, Thyroid gland [2]: 13.2 ± 3.52 μg equiv·g^−1 or mL | Concentration of the radioactivity, Urinary bladder [2]: 2.30 ± 0.326 μg equiv·g^−1 or mL | Concentration of the radioactivity, Adrenals [3]: 7.90 ± 1.57 μg equiv·g^−1 or mL | Concentration of the radioactivity, Blood [3]: 0.466 ± 0.054 μg equiv·g^−1 or mL | Concentration of the radioactivity, Bone (femur) [3]: 0.278 ± 0.057 μg equiv·g^−1 or mL | Concentration of the radioactivity, Bone marrow [3]: 4.12 ± 1.37 μg equiv·g^−1 or mL | Concentration of the radioactivity, Brain [3]: 0.080 ± 0.010 μg equiv·g^−1 or mL | Concentration of the radioactivity, Eyes [3]: 0.511 ± 0.147 μg equiv·g^−1 or mL | Concentration of the radioactivity, Fat [3]: 0.582 ± 0.070 μg equiv·g^−1 or mL | Concentration of the radioactivity, Harderian glands [3]: 3.88 ± 0.907 μg equiv·g^−1 or mL | Concentration of the radioactivity, Heart [3]: 1.57 ± 0.244 μg equiv·g^−1 or mL | Concentration of the radioactivity, Intestine [3]: 1.40 ± 0.183 μg equiv·g^−1 or mL | Concentration of the radioactivity, Kidneys [3]: 3.03 ± 0.429 μg equiv·g^−1 or mL | Concentration of the radioactivity, Liver [3]: 3.45 ± 0.808 μg equiv·g^−1 or mL | Concentration of the radioactivity, Lungs [3]: 1.78 ± 0.237 μg equiv·g^−1 or mL | Concentration of the radioactivity, Pancreas [3]: 6.67 ± 1.70 μg equiv·g^−1 or mL | Concentration of the radioactivity, Pituitary [3]: 7.24 ± 0.292 μg equiv·g^−1 or mL | Concentration of the radioactivity, Plasma [3]: 0.780 ± 0.099 μg equiv·g^−1 or mL | Concentration of the radioactivity, Skeletal muscle [3]: 0.152 ± 0.012 μg equiv·g^−1 or mL | Concentration of the radioactivity, Skin [3]: 0.889 ± 0.228 μg equiv·g^−1 or mL | Concentration of the radioactivity, Spinal cord [3]: 0.033 ± 0.016 μg equiv·g^−1 or mL | Concentration of the radioactivity, Spleen [3]: 17.7 ± 4.96 μg equiv·g^−1 or mL | Concentration of the radioactivity, Stomach [3]: 1.28 ± 0.106 μg equiv·g^−1 or mL | Concentration of the radioactivity, Submandibular lymph nodes [3]: 7.86 ± 1.19 μg equiv·g^−1 or mL | Concentration of the radioactivity, Testes [3]: 4.33 ± 1.00 μg equiv·g^−1 or mL | Concentration of the radioactivity, Thymus [3]: 1.14 ± 0.138 μg equiv·g^−1 or mL | Concentration of the radioactivity, Thyroid gland [3]: 13.9 ± 3.33 μg equiv·g^−1 or mL | Concentration of the radioactivity, Urinary bladder [3]: 1.77 ± 0.889 μg equiv·g^−1 or mL | Concentration of the radioactivity, Adrenals [4]: 5.32 ± 0.996 μg equiv·g^−1 or mL | Concentration of the radioactivity, Blood [4]: 0.170 ± 0.036 μg equiv·g^−1 or mL | Concentration of the radioactivity, Bone (femur) [4]: 0.046 ± 0.001 μg equiv·g^−1 or mL | Concentration of the radioactivity, Bone marrow [4]: 0.361 ± 0.142 μg equiv·g^−1 or mL | Concentration of the radioactivity, Brain [4]: 0.057 ± 0.006 μg equiv·g^−1 or mL | Concentration of the radioactivity, Eyes [4]: 0.299 ± 0.076 μg equiv·g^−1 or mL | Concentration of the radioactivity, Fat [4]: 0.456 ± 0.135 μg equiv·g^−1 or mL | Concentration of the radioactivity, Harderian glands [4]: 2.75 ± 0.281 μg equiv·g^−1 or mL | Concentration of the radioactivity, Heart [4]: 1.14 ± 0.205 μg equiv·g^−1 or mL | Concentration of the radioactivity, Intestine [4]: 0.624 ± 0.033 μg equiv·g^−1 or mL | Concentration of the radioactivity, Kidneys [4]: 2.11 ± 0.574 μg equiv·g^−1 or mL | Concentration of the radioactivity, Liver [4]: 1.17 ± 0.199 μg equiv·g^−1 or mL | Concentration of the radioactivity, Lungs [4]: 1.05 ± 0.238 μg equiv·g^−1 or mL | Concentration of the radioactivity, Pancreas [4]: 5.92 ± 0.436 μg equiv·g^−1 or mL
